From patent publication US20120208237A1 (Novo Nordisk, published 2012)
Blank lines part the entries; values can stand above or below the molecule they belong to.

Legend:
[1] = target: recombinant soluble KIR2DL3 (entire extracellular domain, produced in E. coli) (human) (UniProt P43628); assay: Biacore competition, KIR2DL3 chip; competitor (second Ab) 1-4F1
[2] = target: recombinant soluble KIR2DL3 (entire extracellular domain, produced in E. coli) (human) (UniProt P43628); assay: Biacore, KIR2DL3 chip; first Ab 1-4F1 bound
[3] = target: recombinant soluble KIR2DL3 (entire extracellular domain, produced in E. coli) (human) (UniProt P43628); assay: Biacore, KIR2DL3 chip; direct binding (field of first Ab 1-7F9)
[4] = target: recombinant soluble KIR2DL3 (entire extracellular domain, produced in E. coli) (human) (UniProt P43628); assay: Biacore competition, KIR2DL3 chip; competitor (second Ab) DF200
[5] = target: recombinant soluble KIR2DL3 (entire extracellular domain, produced in E. coli) (human) (UniProt P43628); assay: Biacore competition, KIR2DL3 chip; competitor (second Ab) 1-7F9
[6] = target: recombinant soluble KIR2DL3 (entire extracellular domain, produced in E. coli) (human) (UniProt P43628); assay: Biacore, KIR2DL3 chip; direct binding (field of first Ab 1-6F1)
[7] = target: recombinant soluble KIR2DL3 (entire extracellular domain, produced in E. coli) (human) (UniProt P43628); assay: Biacore, KIR2DL3 chip; direct binding (field of first Ab 1-4F1)
[8] = target: recombinant soluble KIR2DL3 (entire extracellular domain, produced in E. coli) (human) (UniProt P43628); assay: Biacore, KIR2DL3 chip; first Ab 1-7F9 bound
[9] = target: recombinant soluble KIR2DL3 (entire extracellular domain, produced in E. coli) (human) (UniProt P43628); assay: Biacore, KIR2DL3 chip; first Ab 1-6F1 bound
[10] = target: recombinant soluble KIR2DL3 (entire extracellular domain, produced in E. coli) (human) (UniProt P43628); assay: Biacore competition, KIR2DL3 chip; competitor (second Ab) 1-6F1
[11] = target: recombinant soluble KIR2DL3 (entire extracellular domain, produced in E. coli) (human) (UniProt P43628); assay: Biacore competition, KIR2DL3 chip; competitor (second Ab) Pan2D
[12] = target: recombinant soluble KIR2DL1 (entire extracellular domain, produced in E. coli) (human) (UniProt P43626); assay: Biacore, KIR2DL1 chip; direct binding (field of first Ab 1-6F1)
[13] = target: recombinant soluble KIR2DL1 (entire extracellular domain, produced in E. coli) (human) (UniProt P43626); assay: Biacore, KIR2DL1 chip; first Ab 1-7F9 bound
[14] = target: recombinant soluble KIR2DL1 (entire extracellular domain, produced in E. coli) (human) (UniProt P43626); assay: Biacore competition, KIR2DL1 chip; competitor (second Ab) Pan2D
[15] = target: recombinant soluble KIR2DL1 (entire extracellular domain, produced in E. coli) (human) (UniProt P43626); assay: Biacore competition, KIR2DL1 chip; competitor (second Ab) EB6 (self)
[16] = target: recombinant soluble KIR2DL1 (entire extracellular domain, produced in E. coli) (human) (UniProt P43626); assay: Biacore competition, KIR2DL1 chip; competitor (second Ab) DF200
[17] = target: recombinant soluble KIR2DL1 (entire extracellular domain, produced in E. coli) (human) (UniProt P43626); assay: Biacore competition, KIR2DL1 chip; competitor (second Ab) 1-4F1
[18] = target: recombinant soluble KIR2DL1 (entire extracellular domain, produced in E. coli) (human) (UniProt P43626); assay: Biacore, KIR2DL1 chip; direct binding (field of first Ab EB6)
[19] = target: recombinant soluble KIR2DL1 (entire extracellular domain, produced in E. coli) (human) (UniProt P43626); assay: Biacore, KIR2DL1 chip; first Ab 1-6F1 bound
[20] = target: recombinant soluble KIR2DL1 (entire extracellular domain, produced in E. coli) (human) (UniProt P43626); assay: Biacore competition, KIR2DL1 chip; competitor (second Ab) 1-6F1
[21] = target: recombinant soluble KIR2DL1 (entire extracellular domain, produced in E. coli) (human) (UniProt P43626); assay: Biacore, KIR2DL1 chip; first Ab EB6 bound
[22] = target: recombinant soluble KIR2DL1 (entire extracellular domain, produced in E. coli) (human) (UniProt P43626); assay: Biacore competition, KIR2DL1 chip; competitor (second Ab) 1-7F9
[23] = target: recombinant soluble KIR2DL1 (entire extracellular domain, produced in E. coli) (human) (UniProt P43626); assay: Biacore, KIR2DL1 chip; direct binding (field of first Ab 1-7F9)
[24] = target: recombinant soluble KIR2DL1 (entire extracellular domain, produced in E. coli) (human) (UniProt P43626); assay: Biacore competition (Example 10), KIR2DL1 chip; competitor (second Ab) 1-7F9
[25] = target: immobilized KIR2DS1 protein (human) (UniProt Q14954); assay: Biacore, KIR2DS1 chip; first Ab 1-7F9 bound
Sequence of immobilized KIR2DS1 protein (human) (Q14954 22-245 limits assumed): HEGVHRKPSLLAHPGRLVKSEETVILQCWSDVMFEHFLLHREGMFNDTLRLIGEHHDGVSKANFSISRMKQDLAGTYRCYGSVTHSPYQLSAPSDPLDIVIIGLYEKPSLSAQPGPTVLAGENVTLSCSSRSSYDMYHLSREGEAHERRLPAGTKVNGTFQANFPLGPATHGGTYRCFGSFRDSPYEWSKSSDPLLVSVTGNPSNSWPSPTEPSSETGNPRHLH

[26] = target: recombinant soluble KIR2DL3 (entire extracellular domain, produced in E. coli) (human) (UniProt P43628); assay: Biacore, KIR2DL3 chip; direct binding (field of first Ab 1-6F5)
[27] = target: recombinant soluble KIR2DL3 (entire extracellular domain, produced in E. coli) (human) (UniProt P43628); assay: Biacore competition, KIR2DL3 chip; competitor (second Ab) GL183
[28] = target: immobilized KIR2DS1 protein (human) (UniProt Q14954); assay: Biacore competition, KIR2DS1 chip; competitor (second Ab) 1-7F9
[29] = target: recombinant soluble KIR2DL1 (entire extracellular domain, produced in E. coli) (human) (UniProt P43626); assay: Biacore, KIR2DL1 chip; first Ab 1-6F5 bound
[30] = target: recombinant soluble KIR2DL3 (entire extracellular domain, produced in E. coli) (human) (UniProt P43628); assay: Biacore competition (Example 10), KIR2DL3 chip; competitor (second Ab) DF200 (self)
[31] = target: recombinant soluble KIR2DL1 (entire extracellular domain, produced in E. coli) (human) (UniProt P43626); assay: Biacore competition (Example 10), KIR2DL1 chip; competitor (second Ab) DF200 (self)
[32] = target: recombinant soluble KIR2DL1 (entire extracellular domain, produced in E. coli) (human) (UniProt P43626); assay: Biacore, KIR2DL1 chip; direct binding (field of first Ab 1-6F5)
[33] = target: recombinant soluble KIR2DL3 (entire extracellular domain, produced in E. coli) (human) (UniProt P43628); assay: Biacore, KIR2DL3 chip; first Ab 1-6F5 bound
[34] = target: recombinant soluble KIR2DL3 (entire extracellular domain, produced in E. coli) (human) (UniProt P43628); assay: Biacore SPR, antibody over immobilized KIR2DL3 (bivalent binding)
[35] = target: recombinant soluble KIR2DL3 (entire extracellular domain, produced in E. coli) (human) (UniProt P43628); assay: Biacore competition (Example 10), KIR2DL3 chip; competitor (second Ab) 1-7F9
[36] = target: recombinant soluble KIR2DL1 (entire extracellular domain, produced in E. coli) (human) (UniProt P43626); assay: Biacore SPR, antibody over immobilized KIR2DL1 (bivalent binding)
[37] = target: recombinant soluble KIR2DL1 (entire extracellular domain, produced in E. coli) (human) (UniProt P43626); assay: Biacore competition, KIR2DL1 chip; competitor (second Ab) EB6
[38] = target: immobilized KIR2DS1 protein (human) (UniProt Q14954); assay: Biacore competition, KIR2DS1 chip; competitor (second Ab) 1-4F1
[39] = target: recombinant soluble KIR2DL1 (entire extracellular domain, produced in E. coli) (human) (UniProt P43626); assay: Biacore competition (Example 10), KIR2DL1 chip; competitor (second Ab) Pan2D
[40] = target: immobilized KIR2DS1 protein (human) (UniProt Q14954); assay: Biacore competition, KIR2DS1 chip; competitor (second Ab) Pan2D
[41] = target: immobilized KIR2DS1 protein (human) (UniProt Q14954); assay: Biacore, KIR2DS1 chip; direct binding (field of first Ab 1-7F9)
[42] = target: recombinant soluble KIR2DL3 (entire extracellular domain, produced in E. coli) (human) (UniProt P43628); assay: Biacore competition (Example 10), KIR2DL3 chip; competitor (second Ab) Pan2D
[43] = target: recombinant soluble KIR2DL1 (entire extracellular domain, produced in E. coli) (human) (UniProt P43626); assay: Biacore competition, KIR2DL1 chip; competitor (second Ab) 1-6F5
[44] = target: recombinant soluble KIR2DL3 (entire extracellular domain, produced in E. coli) (human) (UniProt P43628); assay: Biacore competition, KIR2DL3 chip; competitor (second Ab) 1-6F5
[45] = target: T1, KIR2DS3 expressed on transfected cells (human, UniProt Q14952 22-304); assay: flow cytometry on cells transfected with KIR2DS3 (fifth column; its head is printed KIRDLS1 a second time, the legend's order gives KIR2DS3)
T1 construct: whole, on cells
T1 sequence (Q14952 22-304): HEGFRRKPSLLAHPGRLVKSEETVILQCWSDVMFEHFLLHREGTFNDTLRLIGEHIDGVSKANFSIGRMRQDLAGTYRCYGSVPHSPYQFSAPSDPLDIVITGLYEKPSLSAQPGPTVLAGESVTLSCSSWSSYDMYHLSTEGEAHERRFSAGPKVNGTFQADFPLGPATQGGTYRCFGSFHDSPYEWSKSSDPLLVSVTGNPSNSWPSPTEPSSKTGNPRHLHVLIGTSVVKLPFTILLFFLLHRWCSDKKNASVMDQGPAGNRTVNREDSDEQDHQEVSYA
Summary of the method: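 Binding of human anti-KIR monoclonal antibodies to cells stably transfected with KIR2DS3 was measured by flow cytometry. Cells were incubated with the antibody at various concentrations (typically 0-50 μg/ml) in DMEM medium containing 2% FCS. They were then washed and stained with an APC-conjugated secondary antibody specific for human IgG, with all incubations and washes at 0-4° C. Cells were resuspended in PBS and analysed on a FACScalibur or FACScanto.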

% inhibition of second antibody binding [1]: 75%
RU, second antibody after first antibody [2]: 330 RU
RU, second antibody alone [3]: 800 RU
% inhibition of second antibody binding [4]: 8%
% inhibition of second antibody binding [5]: 76%
RU, second antibody alone [6]: 620 RU
RU, second antibody alone [7]: 1240 RU
RU, second antibody after first antibody [8]: 200 RU
RU, second antibody after first antibody [9]: 570 RU
% inhibition of second antibody binding [10]: 18%
% inhibition of second antibody binding [11]: 40%
Molecule: murine monoclonal antibody GL183

RU, second antibody alone [12]: 260 RU
RU, second antibody after first antibody [13]: 180 RU
% inhibition of second antibody binding [14]: 40%
% inhibition of second antibody binding [15]: 57%
% inhibition of second antibody binding [16]: 60%
% inhibition of second antibody binding [17]: 48%
RU, second antibody alone [18]: 460 RU
RU, second antibody after first antibody [19]: 320 RU
% inhibition of second antibody binding [20]: 23%
RU, second antibody after first antibody [21]: 200 RU
% inhibition of second antibody binding [22]: 65%
RU, second antibody alone [23]: 460 RU
Molecule: murine monoclonal antibody EB6

RU, second antibody alone [12]: 350 RU
% inhibition of second antibody binding [24]: 17%
RU, second antibody after first antibody [25]: 1090 RU
RU, second antibody after first antibody [13]: 545 RU
% inhibition of second antibody binding [1]: 75%
RU, second antibody alone [26]: 800 RU
% inhibition of second antibody binding [14]: 80%
% inhibition of second antibody binding [27]: 20%
% inhibition of second antibody binding [17]: 92%
% inhibition of second antibody binding [28]: 15%
RU, second antibody after first antibody [29]: 290 RU
% inhibition of second antibody binding [30]: 85%
RU, second antibody after first antibody [2]: 210 RU
RU, second antibody alone [3]: 770 RU
RU, second antibody after first antibody [19]: 310 RU
% inhibition of second antibody binding [31]: 80%
RU, second antibody alone [32]: 350 RU
RU, second antibody after first antibody [33]: 760 RU
Kd [34]: 2 nM
% inhibition of second antibody binding [5]: 62%
% inhibition of second antibody binding [35]: 80%
% inhibition of second antibody binding [20]: 15%
RU, second antibody alone [6]: 790 RU
Kd [36]: 10.9 nM
% inhibition of second antibody binding [37]: 90%
% inhibition of second antibody binding [38]: 87%
RU, second antibody alone [7]: 1140 RU
RU, second antibody after first antibody [8]: 450 RU
RU, second antibody after first antibody [9]: 760 RU
% inhibition of second antibody binding [39]: 85%
% inhibition of second antibody binding [40]: 70%
% inhibition of second antibody binding [10]: 16%
% inhibition of second antibody binding [22]: 27%
RU, second antibody alone [41]: 900 RU
% inhibition of second antibody binding [42]: 50%
RU, second antibody alone [23]: 600 RU
% inhibition of second antibody binding [43]: 15%
% inhibition of second antibody binding [11]: 75%
% inhibition of second antibody binding [44]: 4%
Molecule: murine monoclonal antibody DF200

binding result [45]: no binding (tested: 1 µg/ml)
B1: murine monoclonal antibody NKVSF1 (Pan2D) (antibody, V domains shown)
VH: EVQLQQSGTVLARPGASVKMSCKASGYTFTSYWMHWMKQRPGQGLEWIGTIYPGNSDTNYNQKFKGKAKLTAVTSTNTAYMELSSLTNEDSAVYYCSRPTTATRSSAMDYWGQGTSVTVSS
VL: QIVLTQSPASMSASLGERVTMTCTASSSVSSSYLYWYQQKPGSSPKLWIYSTSNLASGVPARFSGSGSGTSYSLTISSMEAEDAATYYCHQYHRSPPTFGGGTKLEIKR
notes: Murine mAb, bought from Serotec (MCA2243)
